Assays:
cyclic peptide CP10 = test: SPR; details: both partners purified
cyclic peptide CP9 = test: SPR; details: both partners purified

B1: hemagglutinin (HA) ectodomain of A/New Caledonia/20/1999 (H1N1) (domain or fragment)
chain: not shown
modifications: biotin on the BirA site
koff (cyclic peptide CP10): 0.378 s⁻¹ | kon (cyclic peptide CP10): 50300 M⁻¹ s⁻¹ | koff (cyclic peptide CP9): 0.351 s⁻¹ | kon (cyclic peptide CP9): 108000 M⁻¹ s⁻¹

Source: publication PMC12714728 (npj Viruses, 2025)
